In the assay the target is angiotensin converting enzyme 2 (ACE2) (human (endogenous in BCi.NS1.1)) (UniProt Q9BYF1).

Our source for the Ki for reduction of cAMP-activated CFTR chloride channel activity (Ussing chamber, differentiated BCi.NS1.1 epithelia) values is PMC11266487.

UniProt Q9BYF1, sequence (Q9BYF1 18-805): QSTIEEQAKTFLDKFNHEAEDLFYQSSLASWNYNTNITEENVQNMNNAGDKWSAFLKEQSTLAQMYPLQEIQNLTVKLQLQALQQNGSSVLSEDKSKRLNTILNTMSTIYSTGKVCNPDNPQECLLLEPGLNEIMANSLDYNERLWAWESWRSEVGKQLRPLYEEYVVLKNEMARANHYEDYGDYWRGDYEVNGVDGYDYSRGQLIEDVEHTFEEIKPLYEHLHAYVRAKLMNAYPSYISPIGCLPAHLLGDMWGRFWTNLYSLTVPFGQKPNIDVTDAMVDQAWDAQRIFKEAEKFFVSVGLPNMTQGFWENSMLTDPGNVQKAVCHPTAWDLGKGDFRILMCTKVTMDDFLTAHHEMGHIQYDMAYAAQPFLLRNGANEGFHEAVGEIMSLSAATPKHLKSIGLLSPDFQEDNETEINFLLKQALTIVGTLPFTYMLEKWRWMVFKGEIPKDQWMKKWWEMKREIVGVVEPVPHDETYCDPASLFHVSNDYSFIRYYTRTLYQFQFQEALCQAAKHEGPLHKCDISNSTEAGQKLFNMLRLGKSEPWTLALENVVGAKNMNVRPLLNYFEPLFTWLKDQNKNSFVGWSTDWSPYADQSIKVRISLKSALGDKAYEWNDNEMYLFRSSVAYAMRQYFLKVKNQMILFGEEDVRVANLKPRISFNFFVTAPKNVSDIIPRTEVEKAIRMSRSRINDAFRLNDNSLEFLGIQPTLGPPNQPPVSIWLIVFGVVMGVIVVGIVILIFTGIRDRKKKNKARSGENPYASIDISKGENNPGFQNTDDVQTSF

Take “Wuhan-Hu-1 [S1S2] spike protein (natural protein)”: the Ki for reduction of cAMP-activated CFTR chloride channel activity (Ussing chamber, differentiated BCi.NS1.1 epithelia) amounted to 0.446 µg/mL. To “β-1.351 [S1S2] spike protein (natural protein)” belongs 0.21 µg/mL.
